For this assay, the target named is T1, HLA-B*44:05 (human).
T1 construct: also called peptide-receptive MHC class I molecule
The assay is described as follows: UV peptide exchange, anti-b2m ELISA. In short, it runs like this:
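Peptide-receptive HLA-B*44:05 monomers after UV-induced exchange were diluted 100-fold and captured on streptavidin-coated plates for 1 h at 37 °C. Bound complexes were detected with 2 µg/ml HRP-anti-β2m (1 h, 37 °C) and TMB, read at 450 nm. β2m signal reflects peptide-stabilized complex yield.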
(An ELISA detects its analyte on a solid surface through an enzyme-linked reagent.)
Take AEIEADRSYQ: the peptide exchange yield is 20 to 50%.

With EENIVAIGI, the peptide exchange yield fell in the range of 50 to 75%.

In turn, TEFSNHINL had a peptide exchange yield of 50 to 75%.

RLNEHPSNNW returned a peptide exchange yield of 20 to 50%.

Consider YQENPRAAW, for which the peptide exchange yield lay in the range of 20 to 50%.

MEVDPIGHLYIF came in with a peptide exchange yield greater than 75%.

MDELEEGESY yielded a peptide exchange yield of 10 to 20%.

In turn, QETLAESTW gave a peptide exchange yield of 50 to 75%.

On to AETSYVKVLEY, for which the peptide exchange yield is 50 to 75%.

SESDLVNFI showed a peptide exchange yield of 50 to 75%.

In turn, EEIFKTLNY returned a peptide exchange yield of 50 to 75%.

AEYSVHKITSTF yielded a peptide exchange yield greater than 75%.

As for AELEGALQKA, the peptide exchange yield fell in the range of 20 to 50%.

KEPSQSCIAQY: the peptide exchange yield was in the range of 10 to 20%.

SEAGLTANQY: the peptide exchange yield was 50 to 75%.

With EESLLSSW, the peptide exchange yield was 50 to 75%.

Consider SECVKSLSF, for which the peptide exchange yield was greater than 75%.

In turn, AEVTLNNTI yielded a peptide exchange yield of 50 to 75%.

Regarding AEYSVHKI, the peptide exchange yield is 50 to 75%.

On to GEGTLRLSW, for which the peptide exchange yield was greater than 75%.

In the case of SEIDEKVTDL, the peptide exchange yield was 50 to 75%.

TELADLDAAW came in with a peptide exchange yield greater than 75%.

In turn, AEVGDIIKVHF returned a peptide exchange yield of 50 to 75%.

For DENIQKFIW, the peptide exchange yield fell in the range of 50 to 75%.

As to GEARGDQVDW, the peptide exchange yield was greater than 75%.

QTLKAMVQAW had a peptide exchange yield of 50 to 75%.

On to TEGAVEVKY, for which the peptide exchange yield fell in the range of 20 to 50%.

LETSCGSSTAY displayed a peptide exchange yield of 10 to 20%.

SVISDSPRSW: the peptide exchange yield is 50 to 75%.

For AELFLTKSF, the peptide exchange yield was greater than 75%.

Consider AEAEEAMKRL, for which the peptide exchange yield fell in the range of 50 to 75%.

In turn, SESMVESKF showed a peptide exchange yield of 20 to 50%.

TEQSLYYRQW displayed a peptide exchange yield of 50 to 75%.

With AAFEDAQGHIW, the peptide exchange yield is greater than 75%.

As to EEYQDSFERY, the peptide exchange yield lay within 20 to 50%.

SEATHIITI: the peptide exchange yield fell in the range of 50 to 75%.

The molecule NEIDIHSIYF gave a peptide exchange yield greater than 75%.

With EESLLSSWDF, the peptide exchange yield lay in the range of 50 to 75%.

As for GEKATMQNL, the peptide exchange yield is 20 to 50%.

Consider EEAVRSVAF, for which the peptide exchange yield lay within 50 to 75%.

On to KEMDPSRQSY, for which the peptide exchange yield lay in the range of 50 to 75%.

TEGGTQKTF returned a peptide exchange yield of 50 to 75%.

The molecule SLAELIAKDW yielded a peptide exchange yield of 20 to 50%.

Molecule SEESAGPLL gave a peptide exchange yield of 50 to 75%.

KEFYPVKEF: the peptide exchange yield was in the range of 20 to 50%.

Molecule TEAQRLDCW returned a peptide exchange yield of 50 to 75%.

In the case of ELVHMINW, the peptide exchange yield lay within 20 to 50%.

AEVGDIIKV registered a peptide exchange yield of 20 to 50%.

On to SEENTGKTY, for which the peptide exchange yield lay in the range of 50 to 75%.

In turn, SEYPTKNYV registered a peptide exchange yield of 20 to 50%.

QETNKVETY yielded a peptide exchange yield of 50 to 75%.

These data come from patent US20200087363A1 (IMMATICS BIOTECHNOLOGIES, published 2020).
